Results reported in patent US20210024610A1 (Hoffmann-La Roche, published 2021).
Read-outs that look alike come from different tables or passages of the source.

Columns and labels:
Assay in all cases: cell-based or functional assay
[1] = target: T1, human 4-1BB expressed on cells (Jurkat-hu4-1BB-NFκB-luc2 reporter cells; human T cells in PBMC) (human, UniProt Q07011 24-255)
[2] = target: T1, human 4-1BB expressed on cells …; remark: listed apart in the source
[3] = target: T1, human 4-1BB expressed on cells …; remark: listed apart in the source
[4] = target: T1, human 4-1BB expressed on cells …; parameters: unit not given beside the values

T1 sequence (Q07011 24-255): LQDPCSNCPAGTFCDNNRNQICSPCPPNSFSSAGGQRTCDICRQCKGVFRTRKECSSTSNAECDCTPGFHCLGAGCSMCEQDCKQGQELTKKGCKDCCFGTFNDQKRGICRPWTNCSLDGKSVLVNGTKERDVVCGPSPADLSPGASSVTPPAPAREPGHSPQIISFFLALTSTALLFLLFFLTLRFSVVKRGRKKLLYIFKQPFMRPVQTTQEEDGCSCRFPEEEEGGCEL

EC50 of NFκB-activation-induced Luciferase activity, Jurkat-hu4-1BB-NFκB-luc2 reporter cells, with NCI-N87 cells [1]: 140 pM | EC50 of NFκB-activation-induced Luciferase activity, Jurkat-hu4-1BB-NFκB-luc2 reporter cells, with KPL-4 cells [2]: 20 pM | EC50 of NFκB-activation-induced Luciferase activity, Jurkat-hu4-1BB-NFκB-luc2 reporter cells, with NCI-N87 cells [2]: 20 pM | EC50 of NFκB-activation-induced Luciferase activity, Jurkat-hu4-1BB-NFκB-luc2 reporter cells, with SK-Br3 cells [2]: 10 pM | EC50 PBMC activation assay, % proliferating CD4, with NCI-N87 cells [3]: 10 pM | EC50 PBMC activation assay, % proliferating CD8, with NCI-N87 cells [3]: ~30 pM | AUC above background, PBMC activation assay, % proliferating CD4 [4]: 10 | AUC above background, PBMC activation assay, % proliferating CD8 [4]: 16
B1: anti-human 4-1BB clone 20H4.9 human IgG4 (antibody, V domains shown)
VH: QVQLQQWGAGLLKPSETLSLTCAVYGGSFSGYYWSWIRQSPEKGLEWIGEINHGGYVTYNPSLESRVTISVDTSKNQFSLKLSSVTAADTAVYYCARDYGPGNYDWYFDLWGRGTLVTVSS
VL: EIVLTQSPATLSLSPGERATLSCRASQSVSSYLAWYQQKPGQAPRLLIYDASNRATGIPARFSGSGSGTDFTLTISSLEPEDFAVYYCQQRSNWPPALTFCGGTKVEIKR
